According to publication PMC12260392, “Expanding the diversity of bacterial DNA partitioning: A CTP-independent ParABS system for plasmid partitioning in Streptomyces” (Proceedings of the National Academy of Sciences of the …, 2025):

Assays:
[1] = molecular target: T1, ParT (Streptomyces coelicolor A3(2) (plasmid SCP2)) (UniProt Q8VWE5); test: BLI; settings: BLI: 100 mM Tris-HCl pH 8, 150 mM NaCl, 1 mM MgCl2, 0.005% Tween-20, temperature not given
T1 sequence: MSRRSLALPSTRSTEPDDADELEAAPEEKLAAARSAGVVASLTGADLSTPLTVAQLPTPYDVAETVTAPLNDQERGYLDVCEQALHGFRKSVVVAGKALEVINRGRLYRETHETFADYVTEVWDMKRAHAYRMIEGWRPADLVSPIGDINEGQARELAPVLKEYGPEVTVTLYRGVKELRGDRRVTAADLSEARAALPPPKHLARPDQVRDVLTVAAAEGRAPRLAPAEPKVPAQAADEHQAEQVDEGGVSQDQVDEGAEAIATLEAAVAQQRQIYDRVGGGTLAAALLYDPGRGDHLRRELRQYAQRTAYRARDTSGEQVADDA

[2] = molecular target: T1, ParT (Streptomyces coelicolor A3(2) (plasmid SCP2)); test: SPR; settings: 4 C; kinetics; DNA fragment assumed as in BLI; BLI: 100 mM Tris-HCl pH 8, 150 mM NaCl, 1 mM MgCl2, 0.005% Tween-20, temperature not given; SPR at 4 C on Biacore 8K
[3] = tested on: ParT (G87P) (Streptomyces coelicolor A3(2) (plasmid SCP2)); test: BLI; settings: BLI: 100 mM Tris-HCl pH 8, 150 mM NaCl, 1 mM MgCl2, 0.005% Tween-20, temperature not given; SPR at 4 C on Biacore 8K
[4] = molecular target: T2, ParT (Streptomyces coelicolor A3(2) (plasmid …, UniProt Q8VWE5 1-325)); test: BLI; up to 2 uM ParT; BLI: 100 mM Tris-HCl pH 8, 150 mM NaCl, 1 mM MgCl2, 0.005% Tween-20, temperature not given; SPR at 4 C on Biacore 8K; settings: protein: recombinant; tags: C-terminal His6; chain copies: 2; label: 5' biotin on strand 1 (BLI); blunt
T2 sequence: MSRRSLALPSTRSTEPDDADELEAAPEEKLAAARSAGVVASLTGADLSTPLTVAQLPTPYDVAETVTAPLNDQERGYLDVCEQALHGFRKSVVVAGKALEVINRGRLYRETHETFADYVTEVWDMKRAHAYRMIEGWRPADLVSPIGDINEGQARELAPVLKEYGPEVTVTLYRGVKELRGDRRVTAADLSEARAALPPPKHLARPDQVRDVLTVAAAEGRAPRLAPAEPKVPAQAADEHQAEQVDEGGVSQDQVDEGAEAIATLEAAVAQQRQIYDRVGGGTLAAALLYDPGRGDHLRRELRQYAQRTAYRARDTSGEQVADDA

[5] = molecular target: ParA-His6, ParA of plasmid SCP2 (Streptomyces coelicolor)
[6] = molecular target: the molecule itself; test: not stated; apo-ParT in solution (SI Appendix, Fig. S8A); the method is not told in the main text
[7] = molecular target: T2, ParT; test: BLI; no NTP; equilibrium analysis; BLI: 100 mM Tris-HCl pH 8, 150 mM NaCl, 1 mM MgCl2, 0.005% Tween-20, temperature not given; SPR at 4 C on Biacore 8K; settings: protein: recombinant; tags: C-terminal His6; chain copies: 2; label: 5' biotin on strand 1 (BLI); blunt

**Q.** How did the Kd ([1]; no NTP, equilibrium analysis, SPR at 4 C on Biacore 8K) turn out when 40-bp parS+10 duplex was run?
**A.** Its Kd is 580 nM.

**Q.** And the Kd [2]?
**A.** Its Kd is 730 nM.

**Q.** Which results are given for 180-bp parS DNA cut with BamHI or EcoRI?
**A.** binding signal (fraction of closed-loop signal) [3]: 1; binding signal (fraction of closed-loop signal) ([1]; 1 uM ParT, free DNA end by BamHI or EcoRI, SPR at 4 C on Biacore …): 0.2

B1: 40-bp scrambled parS duplex (dsDNA)
DNA 1: ATCGGGCACCTTAGGGCAATCGTAAGTTCGGCGCACGACC
DNA 2: GGTCGTGCGCCGAACTTACGATTGCCCTAAGGTGCCCGAT
**Q.** Does B1 bind [4]?
**A.** Result: no binding

B2: biotinylated ParT (WT), ParB-like protein of plasmid SCP2 (natural protein)
chain: MSRRSLALPSTRSTEPDDADELEAAPEEKLAAARSAGVVASLTGADLSTPLTVAQLPTPYDVAETVTAPLNDQERGYLDVCEQALHGFRKSVVVAGKALEVINRGRLYRETHETFADYVTEVWDMKRAHAYRMIEGWRPADLVSPIGDINEGQARELAPVLKEYGPEVTVTLYRGVKELRGDRRVTAADLSEARAALPPPKHLARPDQVRDVLTVAAAEGRAPRLAPAEPKVPAQAADEHQAEQVDEGGVSQDQVDEGAEAIATLEAAVAQQRQIYDRVGGGTLAAALLYDPGRGDHLRRELRQYAQRTAYRARDTSGEQVADDA
modifications: biotin (site and way of biotinylation not stated)
**Q.** How did the ATPase activity of 0.5 µM ParA with ATP, nonspecific DNA and ParT in increasing molar excess (ATP/ParA/hour) [5] turn out when B2 was run?
**A.** The ATPase activity of 0.5 µM ParA with ATP, nonspecific DNA and ParT in increasing molar excess (ATP/ParA/hour) was 6.

B3: ParT (WT), purified, unlabelled (natural protein, Streptomyces coelicolor, UniProt Q8VWE5 1-325, looked up)
chain: MSRRSLALPSTRSTEPDDADELEAAPEEKLAAARSAGVVASLTGADLSTPLTVAQLPTPYDVAETVTAPLNDQERGYLDVCEQALHGFRKSVVVAGKALEVINRGRLYRETHETFADYVTEVWDMKRAHAYRMIEGWRPADLVSPIGDINEGQARELAPVLKEYGPEVTVTLYRGVKELRGDRRVTAADLSEARAALPPPKHLARPDQVRDVLTVAAAEGRAPRLAPAEPKVPAQAADEHQAEQVDEGGVSQDQVDEGAEAIATLEAAVAQQRQIYDRVGGGTLAAALLYDPGRGDHLRRELRQYAQRTAYRARDTSGEQVADDA
notes: ParT (SCP2.04c), ParB-like protein encoded on plasmid SCP2 of Streptomyces coelicolor, UniProt Q8VWE5; the rows with itself tell the dimer; also called apo-ParT; SCP2.04c; source: purified
**Q.** Which “stoichiometry N” value [6] does the source give for B3 here?
**A.** Its value is 2.

B4: 40-bp parS duplex (dsDNA)
DNA 1: GGCCGACCTCGTGTCTCCAATTGGAGACATCAACGAGGGC
DNA 2: GCCCTCGTTGATGTCTCCAATTGGAGACACGAGGTCGGCC
**Q.** B4 was tested. Which Kd [7] did it give?
**A.** Its Kd is 680 ± 200 nM.
